Results on 5 molecules are retold here after patent publication US20090175892A1 (INSTITUT PASTEUR, published 2009).

The target in test [1] is T1, HLA-B*0702 molecule on HLA-B*0702 transfected TAP deficient T2 cells (T2-B7) (human).
T1 construct: MHC class I molecule without a defined peptide, on the surface of T2-B7 cells; its surface level was read with the anti-HLA-B7 mAb ME.1 by flow cytometry; also called HLA-B7
The test is described as follows: MHC stabilization assay on T2-B7 cells, ME-1 staining; ratio of concentration inducing 20% of HLA-B*0702 expression against reference peptide CMV265-274. From the text: The protocol used has been described previously (Rohrlich et al., 2003).

For test [2], the target named is T1, HLA-B*0702 molecule on HLA-B*0702 …. The test is described as follows: MHC stabilization assay on T2-B7 cells, flow cytometry with ME.1; ratio of concentration giving 20% of maximal binding against reference peptide R10TV. The protocol: The relative avidity of hTERT derived peptides for HLA-*B0702 was measured by using a MHC stabilization assay on HLAB0702 transfected T2 (T2-B7) cells in comparison with a reference peptide (R10TV) as described (Rohrlich et al. Int Immunol 2003; 15:765-72). Briefly, T2-B7 were incubated overnight at 2×10⁵ cells/well in 96-well plates in serum free medium AIM-V (Invitrogen Corp., Gibco), supplemented with 100 ng/ml of human β2-microglobulin, in the absence (negative control) or in the presence of either reference peptide […] or hTERT peptides at various final concentrations (100, 10, 1 and 0.1 μM). T2-B7 cells were labelled with a saturating concentration of ME.1 an anti-HLA-B7 mAb, then washed twice and finally stained with FITC-conjugated F(ab′)2 goat anti-mouse Ig before flow cytometry.
On the technique in general: A flow cytometer gives signals particle by particle.

B1: hTERT peptide analogue p444* (APRRLVQLL) (peptide)
peptide: APRRLVQLL
notes: Synthetic peptide (Epytop); also called optimized p444*
Turning to B1, in test [1], the “RA (relative affinity)” value was determined as 1.4 ratio.
APRCRAVRSL (Synthetic peptide, minimum purity 80%) [hTERT peptide p4 (APRCRAVRSL, residues 4-13)]: the relative avidity in test [2] was determined as 0.3 ratio.
With MPRAPRCRA (Synthetic peptide, minimum purity 80%) [hTERT peptide p1 (MPRAPRCRA, residues 1-9)], the relative avidity in test [2] came out at 0.4 ratio.
With RPSLTGARRL (Synthetic peptide, minimum purity 80%) [hTERT peptide p351 (RPSLTGARRL, residues 351-360)], the relative avidity in test [2] was found to be 1.5 ratio.
Still for that read-out and setting: the result for APSFRQVSCL (Synthetic peptide, minimum purity 80%) [hTERT peptide p68 (APSFRQVSCL, residues 68-77)] reads 0.4 ratio.
